Laboratory results: the DeepSol protein solubility set

Assay: soluble on expression in E. coli; label from the status in PepcDB or PDB records

Soluble on expression in E. coli, not soluble:
MGSDKIHHHHHHMKYLVSIDGGGTKTKFCVSDLDGNILKEHTTGSTNYKSVGIKKTYENINNGFKKILKDLYIDYDDIEYTVFGISGCDSPNDYKIIMDEILKIGINKEKIYLANDAVLAFYAQADSPGLVIVAGTGSIILGIKEDGEIYRVGGWGYNFSDLGSGYDIGRKLLKKVLLYCDECHEYSDLFSCVLDFFGANSFEQLAYMITDINDNVEIANLASLVIDCAEQGDKLAIEILRESSTELSKLAQVILRKISNPMKMDKSEINIVLSGGTLNKTVYVQMLMNNLKTENTDKNLKFISQENQPVYGGIRLAMALANRRVKHG
MGSDKIHHHHHHMKYVLIQATDNGILRRAECGGAVTALFKYLLDKKLVDGVLALKRGEDVYDGIPTFITNSNELVETAGSLHCAPTNFGKLIAKYLADKKIAVPAKPCDAMAIRELAKLNQINLDNVYMIGLNCGGTISPITAMKMIELFYEVNPLDVVKEEIDKGKFIIELKNGEHKAVKIEELEEKGFGRRKNCQRCEIMIPRMADLACGNWGAEKGWTFVEICSERGRKLVEDAEKDGYIKIKQPSEKAIQVREKIESIMIKLAKKFQKKHLEEEYPSLEKWKKYWNRCIKCYGCRDNCPLCFCVECSLEKDYIEEKGKIPPNPLIFQGIRLSHISQSCINCGQCEDACPMDIPLAYIFHRMQLKIRDTLGYIPGVDNSLPPLFNIER
MGSDKIHHHHHHMLDDHTQLEFPASGMTELPLIWQPQVIRCKAAGPGGRPLLVLLDTGTDPSAIDLTLARRLDLRLGDFALGSDATCDTVPFTETVLPWLRLGEVMLRNLYLMAVDLRQMPFPVDLVLGYNVLHRLNLTIDYAGQTVRLCHPDLAPPPPGAEGASVPLRFFEHFPALPAQIIAPSGATHDVILTIDTGSNGALTVSRDLAASLHLDLHTVQAATGHGFAAATPVSRGFTVDLQLGPFRLPAVEVDVPATSHGDLGRQGRANVGNRLLSRFRRLTLDYRREVCILDR
MGSDKIHHHHHHMLDKLWKKKNSMMVGIDIGSHSAKAVLLGQGNEGFIIEDFAIEPMPRGSVVDREIQDIEAVGAVIAKLRKKISAKATDAAAAVSGQTVITKLIYMDVALTEDELASQIEIEADSLIPFPLDEVSLDFETLDVNESDPSKVNVLLSAARTESIEARVAALDAGDFHAKVIDVESYAVGRAYDLCLTQLPDDAKDKVVAIVDIGSTVTLFSATDAGKHIYSRDQMFGGEQYTRSIVSYYNKSFEQAEEAKTSNDLPPNYTFEVLAPFHTVLMQQIRRAIQMFLTTSGQNKVDYLLISGGTAALEGIESLLTEELGIHTVIANPFNDMSCGESIEQAELANVAPQLMVATGLALRSFTPWHI
MGSDKIHHHHHHMLDLGCGDGTLLHYLRDKLDIHGYGVEIDAHNILACMKNGINVIQNDLEAGLSEFEGESFDYVILSQTLQAMKNTEYIIREMLRVGKEGIVSFPNFGYWKNRIQVAGGHMPVSPTLPYQWYDTPNVHLCTLHDFEQLCQQHRVNILERRVMNNDKKVTFLPNLFGILAFYRFSHAA
MGSDKIHHHHHHMLEQTLLDIALDLSQSLPKKALYQRFMTAVNQVMPCDAVALLEYQGHELVPVAVDGLLPEVLGMGFSPEDHPRLQAIMASKQPIRFNADSELADPYDGYLVIDPKRVLDVHACIGCSLFVEGRLVGVLTLDALNVGAFDAIDDITIATLAALAAATIRNVNLLNQLDRQQYKLDDNDSVFKQKPLKKSDFIGETPCMQALKDDIRIVANSELSVIIGGETGVGKELVARSLHAQSKRRAQALVQVNCAALPDTLAESELFGHSKGAFTGAAKDRMGKFELAHQGTLFLDEVGELSLELQAKLLRVIQEGEIQRIGLDRNIHVDVRIIAASNRNLLQRVKEGLFREDLYHRLCVYPLNVPPLRERQDDIPLLCGNILTNLKHKIGLSSAKTVRLTQAAMQKLQGYPWPGNVRELQHVLMRAALKASAEAKGITVIQLHHLTFACEPMSQGLTELTAFNSNSPDSNPSTSDETFAAANREEKVEPPVISRSFNDRVADFQRQVIRQSLDDNSQVWAKAARQLQLDRGNLHRQAKRLGLIP
MGSDKIHHHHHHMLIIKRSVAIIAILFSPLSTASNLTSQLHNFFSAQLAGVSDEVRVSIRTAPNLLPPCEQPLLSMSNNSRLWGNVNVLARCGNDKRYLQVNVQATGNYVVAAMPIARGGKLEAGNVKLKRGRLDTLPPRTVLDINQLVDAISLRDLSPDQPIQLTQFRQAWRVKAGQRVNVIASGDGFSANAEGQALNNAAVAQNARVRMVSGQVVSGVVDADGNILINL
